Measured values taken from the RNAGym collection of RNA variant scans (doi:10.1021/acssynbio.7b00057).

B1: Pistol ribozyme (parent)
chain: GGGUCGUUGUUCCAUAAUCGCGUGGAUAUGGCACGCAAGUUUCUACCGGGCACCGUAAAUGUCCGACUGGAGCCGUUCGGGCGGCUAUAAACAGACCUCAGGCCCGAAGCGUGGCGGCACCUGCCGCCGGUGGUAAAAAAGAUCGGAAGAGCACACGUCU

Variants of: B1
Assay: aptazyme ON/OFF ratio, guanine; higher = stronger switching; co-transcriptional cleavage with and without guanine

| Variant | aptazyme ON/OFF ratio |
| --- | --- |
| U7G U8C G9C C13U | 1.15 |
| U7G U8C G9C C13G | 1.05 |
| U7G U8C G9C C13A | 1.11 |
| U7G U8C G9C U10A U11A C13U | 1.23 |
| U7G U8C G9C U10A U11A C13G | 1.1 |
| U7G U8C G9C U10A U11A C13A | 1.09 |
| U7G U8C G9C U10C U11G C12A C13U | 1.1 |
| U7G U8C G9C U10C U11G C12A C13A | 1.19 |
| U7G U8C G9C U10C U11G C12A C13G | 1.09 |
| U7G U8C G9C U10C U11G C12G C13G | 1.09 |
| U7G U8C G9C U10C U11G C12G C13A | 1.1 |
| U7G U8C G9C U10C U11G C12G C13U | 1.05 |
| U7G U8C G9C U10C U11C C13G | 1.36 |
| U7G U8C G9C U10C U11C C13U | 0.999 |
| U7G U8C G9C U10C U11C C13A | 1.04 |
| U7G U8C G9C U11C C12G | 1.34 |
| U7G U8C G9C U11C C12U | 1.78 |
| U7G U8C G9C U11C C12A | 1.9 |
| U7G U8C G9C U10A C12G C13G | 1.05 |
| U7G U8C G9C U10A C12G C13A | 1.06 |
| U7G U8C G9C U10A C12G C13U | 1.09 |
| U7G U8C G9C U10C C12A C13A | 1.08 |
| U7G U8C G9C U10C C12A C13G | 1.1 |
| U7G U8C G9C U10C C12A C13U | 1.04 |

| Variant | aptazyme ON/OFF ratio |
| --- | --- |
| U7G U8C G9C U10G U11G C12G | 1.13 |
| U7G U8C G9C U10G U11G C12A | 1.17 |
| U7G U8C G9C U10G U11G C12U | 1.06 |
| U7G U8C G9C | 1.35 |
| U7G U8C G9U | 4.98 |
| U7G U8C G9A U11A C12U C13A | 1.09 |
| U7G U8C G9A U11A C12U C13G | 1.08 |
| U7G U8C G9A U11A C12U C13U | 1.05 |
| U7G U8C G9U C13U | 2.37 |
| U7G U8C G9U C13A | 1.36 |
| U7G U8C G9U C13G | 1.04 |
| U7G U8C G9U U10A C12A C13G | 1.17 |
| U7G U8C G9U U10A C12A C13U | 1.24 |
| U7G U8C G9U U10A C12A C13A | 1.18 |
| U7G U8C G9C U10A C12A | 1.09 |
| U7G U8C G9C U10A C12G | 1.25 |
| U7G U8C G9C U10A C12U | 1.06 |
| U7G U8C G9C U11G C13G | 1.17 |
| U7G U8C G9C U11G C13U | 1.25 |
| U7G U8C G9C U11G C13A | 1.24 |
| U7G U8C G9C U10G C12A | 1.13 |
| U7G U8C G9C U10G C12U | 1.14 |
| U7G U8C G9C U10G C12G | 1.12 |
| U7G U8C G9C U10A U11G C13U | 1.18 |

| Variant | aptazyme ON/OFF ratio |
| --- | --- |
| U7G U8C G9C U10A U11G C13G | 1.15 |
| U7G U8C G9C U10A U11G C13A | 1.14 |
| U7G U8C G9C U11A C12G | 1.2 |
| U7G U8C G9C U11A C12A | 1.19 |
| U7G U8C G9C U11A C12U | 1.23 |
| U7G U8C G9A U11A C13G | 1.03 |
| U7G U8C G9A U11A C13U | 1.21 |
| U7G U8C G9A U11A C13A | 1.14 |
| U7G U8C G9C U10G U11C C12U | 1.12 |
| U7G U8C G9C U10G U11C C12A | 1.36 |
| U7G U8C G9C U10G U11C C12G | 1.21 |
| U7G U8C G9C U11C C12U C13G | 1.1 |
| U7G U8C G9C U11C C12U C13U | 1.34 |
| U7G U8C G9C U11C C12U C13A | 1.22 |
| U7G U8C G9C U10A U11C C13A | 1.41 |
| U7G U8C G9C U10A U11C C13U | 1.25 |
| U7G U8C G9C U10A U11C C13G | 1.26 |
| U7G U8C G9C C12U | 1.28 |
| U7G U8C G9C C12A | 1.12 |
| U7G U8C G9C C12G | 1.22 |
| U7G U8C G9C U11G C12G | 1.07 |
| U7G U8C G9C U11G C12U | 1.66 |
| U7G U8C G9C U11G C12A | 1.39 |
| U7G U8C G9C U10A U11G C12U | 1.26 |

| Variant | aptazyme ON/OFF ratio |
| --- | --- |
| U7G U8C G9C U10A U11G C12G | 1.17 |
| U7G U8C G9C U10A U11G C12A | 1.08 |
| U7G U8C G9C U10A U11A C12U | 1.16 |
| U7G U8C G9C U10A U11A C12A | 1.19 |
| U7G U8C G9C U10A U11A C12G | 1.19 |
| U7G U8C G9C U11G C12U C13G | 1.33 |
| U7G U8C G9C U11G C12U C13U | 1.37 |
| U7G U8C G9C U11G C12U C13A | 1.3 |
| U7G U8C G9C U10C U11C C12G C13G | 1.04 |
| U7G U8C G9C U10C U11C C12G C13A | 1.09 |
| U7G U8C G9C U10C U11C C12G C13U | 1.04 |
| U7G U8C G9C U10G U11A C12G C13G | 1.21 |
| U7G U8C G9C U10G U11A C12G C13U | 1.1 |
| U7G U8C G9C U10G U11A C12G C13A | 1.07 |
| U7G U8C G9C U10G C12U C13U | 1.14 |
| U7G U8C G9C U10G C12U C13G | 1.08 |
| U7G U8C G9C U10G C12U C13A | 1.11 |
| U7G U8C G9C U10A C12U C13A | 1.03 |
| U7G U8C G9C U10A C12U C13G | 1.01 |
| U7G U8C G9C U10A C12U C13U | 1.04 |
| U7G U8C G9C U10C C13U | 1.15 |
| U7G U8C G9C U10C C13A | 1.06 |
| U7G U8C G9C U10C C13G | 1.21 |
| U7G U8C G9C U11C C12A C13A | 1.11 |

| Variant | aptazyme ON/OFF ratio |
| --- | --- |
| U7G U8C G9C U11C C12A C13U | 1.53 |
| U7G U8C G9C U11C C12A C13G | 1.21 |
| U7G U8C G9U U10A U11A | 4.34 |
| U7G U8C G9U U10A U11A C12G | 1.6 |
| U7G U8C G9U U10A U11A C12A | 1.63 |
| U7G U8C G9C U10C U11G C12U C13G | 1.08 |
| U7G U8C G9C U10C U11G C12U C13A | 1.08 |
| U7G U8C G9C U10C U11G C12U C13U | 1.08 |
| U7G U8C G9C U11C C12G C13G | 1.07 |
| U7G U8C G9C U11C C12G C13U | 1.11 |
| U7G U8C G9C U11C C12G C13A | 1.2 |
| U7G U8C G9A U11G C12G C13G | 1.08 |
| U7G U8C G9A U11G C12G C13A | 1.07 |
| U7G U8C G9A U11G C12G C13U | 1.05 |
| U7G U8C G9C U10C C12G C13G | 1.11 |
| U7G U8C G9C U10C C12G C13A | 1.14 |
| U7G U8C G9C U10C C12G C13U | 1.08 |
| U7G U8C G9U C12A | 1.35 |
| U7G U8C G9U C12G | 3.03 |
| U7G U8C G9U C12U | 4.27 |
| U7G U8C G9C U10G | 1.17 |
| U7G U8C G9C U10C | 1.92 |
| U7G U8C G9C U10A | 2.18 |
| U7G U8C G9U C12U C13U | 1.41 |

| Variant | aptazyme ON/OFF ratio |
| --- | --- |
| U7G U8C G9U C12U C13A | 1.18 |
| U7G U8C G9U C12U C13G | 1.16 |
| U7G U8C G9C U10A U11C C12U | 1.32 |
| U7G U8C G9C U10A U11C C12G | 1.26 |
| U7G U8C G9C U10A U11C C12A | 1.33 |
| U7G U8C G9A U11G C12A C13A | 1.1 |
| U7G U8C G9A U11G C12A C13G | 1.1 |
| U7G U8C G9A U11G C12A C13U | 1.12 |
| U7G U8C G9C U10C U11C C12A | 1.05 |
| U7G U8C G9C U10C U11C C12G | 1.06 |
| U7G U8C G9C U10C U11C C12U | 1.02 |
| U7G U8C G9A U11C C13U | 1.21 |
| U7G U8C G9A U11C C13G | 1.06 |
| U7G U8C G9A U11C C13A | 1.34 |
| U7G U8C G9A U11C C12U C13A | 1.15 |
| U7G U8C G9A U11C C12U C13G | 1.12 |
| U7G U8C G9A U11C C12U C13U | 1.08 |
| U7G U8C G9C U10G U11C C12U C13A | 1.26 |
| U7G U8C G9C U10G U11C C12U C13G | 1.32 |
| U7G U8C G9C U10G U11C C12U C13U | 1.4 |
| U7G U8C G9C U11G | 1.33 |
| U7G U8C G9C U11C | 1.87 |
| U7G U8C G9C U11A | 2.39 |
| U7G U8C G9C U10G U11A C12G | 1.17 |

| Variant | aptazyme ON/OFF ratio |
| --- | --- |
| U7G U8C G9C U10G U11A C12A | 1.28 |
| U7G U8C G9C U10G U11A C12U | 1.04 |
| U7G U8C G9U U10A U11A C12A C13U | 1.32 |
| U7G U8C G9U U10A U11A C12A C13G | 1.11 |
| U7G U8C G9U U10A U11A C12A C13A | 1.29 |
| U7G U8C G9C U10G U11G C13G | 1.12 |
| U7G U8C G9C U10G U11G C13A | 1.1 |
| U7G U8C G9C U10G U11G C13U | 1.06 |
| U7G U8C G9C U10A C12A C13A | 1.08 |
| U7G U8C G9C U10A C12A C13G | 1.08 |
| U7G U8C G9C U10A C12A C13U | 1.05 |
| U7G U8C G9C U10G C12G C13G | 1.07 |
| U7G U8C G9C U10G C12G C13U | 1.1 |
| U7G U8C G9C U10G C12G C13A | 1.09 |
| U7G U8C G9C U10G U11C C12G C13G | 1.15 |
| U7G U8C G9C U10G U11C C12G C13U | 1.19 |
| U7G U8C G9C U10G U11C C12G C13A | 1.29 |
| U7G U8C G9A U11C C12A C13A | 1.11 |
| U7G U8C G9A U11C C12A C13G | 1.17 |
| U7G U8C G9A U11C C12A C13U | 1.5 |
| U7G U8C G9C U10C U11A C12U C13A | 1.04 |
| U7G U8C G9C U10C U11A C12U C13U | 1.05 |
| U7G U8C G9C U10C U11A C12U C13G | 1.12 |
